Measured values: patent US20240034762A1 (YALE UNIVERSITY, published 2024)

T1: soluble extracellular domain of human α-Klotho (aa 1-980) fused to a 6xHis tag (human, UniProt Q9UEF7 34-980)
T1 construct: Secreted from HEK293 EBNA cells; also called sKLA; soluble α-Klotho
T1 sequence: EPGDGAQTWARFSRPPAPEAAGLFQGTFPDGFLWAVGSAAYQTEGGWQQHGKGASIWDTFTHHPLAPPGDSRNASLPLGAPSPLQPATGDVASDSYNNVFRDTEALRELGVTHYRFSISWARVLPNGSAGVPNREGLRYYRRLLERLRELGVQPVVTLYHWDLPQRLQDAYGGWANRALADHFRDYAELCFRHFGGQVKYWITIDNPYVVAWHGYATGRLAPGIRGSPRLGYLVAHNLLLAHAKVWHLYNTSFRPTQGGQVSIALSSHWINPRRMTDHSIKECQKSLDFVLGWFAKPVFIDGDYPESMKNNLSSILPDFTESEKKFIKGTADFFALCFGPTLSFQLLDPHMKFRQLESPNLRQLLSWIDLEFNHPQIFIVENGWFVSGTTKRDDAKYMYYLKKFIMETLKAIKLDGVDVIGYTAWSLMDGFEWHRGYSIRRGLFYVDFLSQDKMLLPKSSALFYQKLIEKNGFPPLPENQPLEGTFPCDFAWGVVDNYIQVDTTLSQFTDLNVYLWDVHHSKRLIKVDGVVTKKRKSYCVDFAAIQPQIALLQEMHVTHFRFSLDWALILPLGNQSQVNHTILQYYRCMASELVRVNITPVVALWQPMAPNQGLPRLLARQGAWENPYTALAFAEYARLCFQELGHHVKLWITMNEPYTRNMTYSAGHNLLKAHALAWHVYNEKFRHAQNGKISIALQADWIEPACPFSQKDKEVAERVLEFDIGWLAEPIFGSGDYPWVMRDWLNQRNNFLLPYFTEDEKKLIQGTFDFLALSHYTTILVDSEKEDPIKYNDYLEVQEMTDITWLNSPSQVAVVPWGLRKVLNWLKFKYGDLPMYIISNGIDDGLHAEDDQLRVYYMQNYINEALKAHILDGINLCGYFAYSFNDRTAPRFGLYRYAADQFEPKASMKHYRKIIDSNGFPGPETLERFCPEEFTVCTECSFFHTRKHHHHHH

T2: full-length human α-Klotho with a C-terminal HA-tag on HEK293 cells stably co-expressing FGFR1c (human, UniProt Q9UEF7 34-1012)
T2 sequence: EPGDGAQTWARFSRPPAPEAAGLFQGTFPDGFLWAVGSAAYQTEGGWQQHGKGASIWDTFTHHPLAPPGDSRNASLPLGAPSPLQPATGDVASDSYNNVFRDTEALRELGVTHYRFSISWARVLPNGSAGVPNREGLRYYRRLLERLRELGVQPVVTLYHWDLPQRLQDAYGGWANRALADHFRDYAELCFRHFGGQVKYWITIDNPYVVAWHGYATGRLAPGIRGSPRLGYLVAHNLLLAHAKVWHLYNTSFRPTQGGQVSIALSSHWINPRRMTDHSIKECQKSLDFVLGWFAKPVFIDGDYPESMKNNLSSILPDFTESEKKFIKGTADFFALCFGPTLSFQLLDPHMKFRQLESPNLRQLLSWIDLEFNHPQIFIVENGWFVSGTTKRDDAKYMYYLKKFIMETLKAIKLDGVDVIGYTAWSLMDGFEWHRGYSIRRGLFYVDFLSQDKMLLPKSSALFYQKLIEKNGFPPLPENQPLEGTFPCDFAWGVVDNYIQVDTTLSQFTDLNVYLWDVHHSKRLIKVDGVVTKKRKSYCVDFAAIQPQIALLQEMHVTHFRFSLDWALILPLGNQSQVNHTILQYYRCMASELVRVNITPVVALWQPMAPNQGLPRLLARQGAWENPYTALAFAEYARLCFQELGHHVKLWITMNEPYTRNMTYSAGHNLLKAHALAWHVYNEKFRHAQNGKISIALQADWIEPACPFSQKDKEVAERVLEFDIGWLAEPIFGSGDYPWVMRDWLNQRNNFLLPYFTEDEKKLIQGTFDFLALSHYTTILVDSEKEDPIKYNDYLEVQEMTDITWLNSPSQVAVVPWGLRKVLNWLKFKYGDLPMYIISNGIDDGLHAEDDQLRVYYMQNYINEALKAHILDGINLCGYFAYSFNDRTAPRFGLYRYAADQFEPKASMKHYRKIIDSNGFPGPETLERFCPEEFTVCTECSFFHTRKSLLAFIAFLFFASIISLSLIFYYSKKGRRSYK

B1: human FGF23 D188A/D222A double mutant (ligand)
chain: DYKDDDDKYPNASPLLGSSWGGLIHLYTATARNSYHLQIHKNGHVDGAPHQTIYSALMIRSEDAGFVVITGVMSRRYLCMDFRGNIFGSHYFDPENCRFQHQTLENGYDVYHSPQYHFLVSLGAAKAAFLPGMNPPPYSQFLSRRNEIPLIHFNTPIPRQHTQSAEDDSERAPLNVLKPRARMTPAPASCSQELPSAEDNSPMASAPLGVVRGGRVNTHAGGTGPEGCRPFAKFI
notes: also called D188A/D222A double mutations
B2: human FGF23-R1 (aa 25-205) expressed in E. coli (ligand)
chain: YPNASPLLGSSWGGLIHLYTATARNSYHLQIHKNGHVDGAPHQTIYSALMIRSEDAGFVVITGVMSRRYLCMDFRGNIFGSHYFDPENCRFQHQTLENGYDVYHSPQYHFLVSLGAAKAAFLPGMNPPPYSQFLSRRNEIPLIHFNTPIPRQHTQSAEDDSERDPLNVLKPRARMTPAPAS
B3: full length human FGF23 (aa 25-251) expressed in E. coli (ligand)
chain: YPNASPLLGSSWGGLIHLYTATARNSYHLQIHKNGHVDGAPHQTIYSALMIRSEDAGFVVITGVMSRRYLCMDFRGNIFGSHYFDPENCRFQHQTLENGYDVYHSPQYHFLVSLGAAKAAFLPGMNPPPYSQFLSRRNEIPLIHFNTPIPRQHTQSAEDDSERDPLNVLKPRARMTPAPASCSQELPSAEDNSPMASDPLGVVRGGRVNTHAGGTGPEGCRPFAKFI
B4: human FGF23-R2 (aa 25-179 fused to aa 212-243) (ligand)
chain: YPNASPLLGSSWGGLIHLYTATARNSYHLQIHKNGHVDGAPHQTIYSALMIRSEDAGFVVITGVMSRRYLCMDFRGNIFGSHYFDPENCRFQHQTLENGYDVYHSPQYHFLVSLGAAKAAFLPGMNPPPYSQFLSRRNEIPLIHFNTPIPRQHTQSAEDNSPMASDPLGVVRGGRVNTHAGGTGPEG

Key:
[1] = molecular target: T1, soluble extracellular domain of human …; assay: BLI, FGF23 variant on the sensor, sKLA as analyte
[2] = molecular target: T2, full-length human α-Klotho with a …; assay: cell-based or functional assay

Binder	binding result [1]	activation of MAPK response in HEK293 cells co-expressing FGFR1c and α-Klotho; ligand concentration at saturation [2]
B1	no binding (tested: sKLA 6.25 nM to 200 nM)	
B2		0.1 nM
B3		0.1 nM
B4		0.1 nM
